Patent publication US12018081B1, “Photoconjugation reactions for modification of specific proteins on live cells” (The Regents of the University of Colorado, a body, priority 2019, dated 2024)

Legend:
[1] = biological target: Extracellular domain of purified human EGFR (Sino Biological) (human) (UniProt P00533); experiment: microscale thermophoresis, AF647-labelled soluble EGFR, fusion protein titrated
[2] = test system: MDA-MB-468 cells; assay type: cell-based, human; details: drug or prodrug only, no protein, FIG. 4
Description: Finally, having established both the photocrosslinking of the […] affibody-enzyme to EGFR on living cells and retention of protein expression before and after endocytosis, the enzymatic activity of the fusion proteins was then leveraged for cell killing by prodrug conversion. […] Next, prodrug therapy experiments were run against MDA-MB-468 cells in vitro. In 96-well plates, cells were incubated with 1 μM of WT-CodA, N23-CodA, or CodA alone. As before, after 3 h the cells were irradiated with 365 nm light for 30 min followed by further incubation to a total time of 8, 24, or 48 h. When each time point was reached, the excess affibody-enzymes were removed by washing the cells three times with PBS, and 2 mM of 5-FC was added. […] After 12 h incubation with 5-FC, excess pro-drug was removed, cells were washed with PBS, and viability was measured by MTT assay. […]
Prodrug Cytotoxicity (MTT) Assays: The MDA-MB-468 cells were grown to confluence, after which the cells were washed once with DPBS (Gibco) and then trypsinized with 0.025% trypsin-EDTA (Gibco). […] The crystals were dissolved in 100 μL isopropyl alcohol (IPA), and absorbance from the wells was measured at 570 nm in a Tecan Safire II Multimode Plate reader. The readings were then normalized to the cells that were treated with neither enzyme, enzyme-affibody, nor 5-FC/5-FU to calculate the fractional viability. […]

[3] = biological target: EGFR expressed on live MDA-MB-468 human breast carcinoma cells (human) (UniProt P00533); experiment: cell-based or functional assay
[4] = Affibody-enzyme kinetic activity assay with cytosine (UV-Vis); assay type: biochemical; details: 50 nM enzyme, cytosine 100-250 μM, 50 mM Tris-HCl pH 7.5
Description: Affibody-enzyme Kinetic Activity Assays with Cytosine: The enzymatic assay for N23-CodA, WT-CodA, and CodA were performed by varying substrate concentration and measuring the absorbance using a UV-VIS spectrophotometer (Agilent Technologies, Cary Series 100). A stock of 10 mM cytosine was prepared in 50 mM Tris-HCl at pH 7.5. Varying concentrations (250, 200, 150 and 100 μM) of cytosine solution were prepared from the stock and mixed with 50 nM of the enzyme and enzyme-affibodies. The reaction was run for 15 min with OD267 (cytosine) and OD260 (uracil) readings taken every 12 s. The concentration of cytosine was calculated for each time point and the kinetic parameters KM and kcat were calculated using the methods of initial rates and double reciprocal plots.

[5] = reported value for free CodA; cited from earlier work

Molecule	Kd [1] [nM]	baseline viability (cell viability fraction) [2]	further results
WT affibody-fused CodA (ZEGFR:1907 affibody fused to cytosine deaminase) (from UniProt P25524 2-427) (designed binder)	25		
Nc1nc(=O)[nH]cc1F [5-FC, 5-fluorocytosine]		0.854	
O=c1[nH]cc(F)c(=O)[nH]1 [5-FU, 5-fluorouracil]		0.467	
BP-modified mutant affibody-enzyme (N23C ZEGFR:1907 affibody with benzophenone, fused to cytosine deaminase) (from UniProt P25524 2-427) (designed binder)	44		cell viability of MDA-MB-468 cells by MTT assay after 5-FC prodrug [3]: 50 to 55%
CodA: Cytosine deaminase, bacterial enzyme of E. coli, alone without affibody (protein, UniProt P25524 2-427, looked up) Cytosine deaminase: SNNALQTIINARLPGEEGLWQIHLQDGKISAIDAQSGVMPITENSLDAEQGLVIPPFVEPHIHLDTTQTAGQPNWNQSGTLFEGIERWAERKALLTHDDVKQRAWQTLKWQIANGIQHVRTHVDVSDATLTALKAMLEVKQEVAPWIDLQIVAFPQEGILSYPNGEALLEEALRLGADVVGAIPHFEFTREYGVESLHKTFALAQKYDRLIDVHCDEIDDEQSRFVETVAALAHHEGMGARVTASHTTAMHSYNGAYTSRLFRLLKMSGINFVANPLVNIHLQGRFDTYPKRRGITRVKEMLESGINVCFGHDDVFDPWYPLGTANMLQVLHMGLHVCQLMGYGQINDGLNLITHHSARTLNLQDYGIAAGNSANLIILPAENGFDALRRQVPVRYSVRGGKVIASTQPAQTTVYLEQPEAIDYKR			Km [4]: 2520 µM; kcat [4]: 53.57 s⁻¹; melting temperature, reported value [5]: 85 °C
